What all share (experiment): cell-based or functional assay
Assay [1] deals with HIV-1 Env of isolate MGRM-A-008 (clade A), on pseudovirus (HIV-1).
Assay [2] has as its target HIV-1 Env of isolate NL43 (HIV-1).
Assay [3] has as its target HIV-1 Env of isolate MGRM-A-009 (clade A), on pseudovirus (HIV-1).
Assay [4] deals with HIV-1 Env of isolate MGRM-D-011 (HIV-1).
Assay [5] addresses HIV-1 Env of isolate MGRM-AE-001 (CRF01_AE), on pseudovirus (HIV-1).
Assay [6] deals with HIV-1 Env of isolate MGRM-F1-012 (subtype F), on pseudovirus (HIV-1).
Assay [7] has as its target HIV-1 Env of isolate MGRM-F1-004 (subtype F), on pseudovirus (HIV-1).
Assay [8] has as its target HIV-1 Env of isolate MGRM-F1-018 (subtype F), on pseudovirus (HIV-1).
Assay [9] deals with HIV-1 Env of isolate 92UG005 (HIV-1).
Assay [10] concerns the target HIV-1 Env of isolate JRCSF (HIV-1) (UniProt P20871).
Assay [11] deals with HIV-1 Env of isolate MGRM-D-002 (HIV-1).
In assay [12] the target is HIV-1 Env of isolate QH0692.42 (HIV-1).
Assay [13] deals with HIV-1 Env of isolate MGRM-AG-006 (CRF_AG), on pseudovirus (HIV-1).
Assay [14] deals with HIV-1 Env of isolate MGRM-F1-013 (subtype F), on pseudovirus (HIV-1).
Assay [15] has as its target HIV-1 APV6 envelope glycoprotein (Env) on pseudovirus (HIV-1).
Assay [16] concerns the target HIV-1 93IN905 envelope glycoprotein (Env) on pseudovirus (HIV-1).
The target of assay [17] is HIV-1 Env of isolate MGRM-D-001 (clade D) (HIV-1).

Some results are limits rather than exact numbers.

Broadly, the IC50 is the concentration needed to halve the response being measured. Lower therefore signals greater potency in that assay.

Chain of 5345_I01 (PGT-137) (antibody) (VH): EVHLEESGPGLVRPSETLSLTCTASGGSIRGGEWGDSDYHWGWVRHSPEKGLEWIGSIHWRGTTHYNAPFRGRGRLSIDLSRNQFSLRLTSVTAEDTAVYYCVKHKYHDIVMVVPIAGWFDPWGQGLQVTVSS
Chain of 5345_I01 (PGT-137) (antibody) (VL): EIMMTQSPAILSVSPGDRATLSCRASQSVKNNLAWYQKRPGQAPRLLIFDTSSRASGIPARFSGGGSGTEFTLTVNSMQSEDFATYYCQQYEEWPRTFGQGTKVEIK
Chain of 5329_C19 (PGT-136) (antibody) (VH): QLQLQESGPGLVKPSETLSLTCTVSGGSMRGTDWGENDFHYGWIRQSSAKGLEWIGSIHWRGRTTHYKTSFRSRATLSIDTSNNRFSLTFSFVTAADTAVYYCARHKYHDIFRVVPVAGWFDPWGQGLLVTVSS
Chain of 5329_C19 (PGT-136) (antibody) (VL): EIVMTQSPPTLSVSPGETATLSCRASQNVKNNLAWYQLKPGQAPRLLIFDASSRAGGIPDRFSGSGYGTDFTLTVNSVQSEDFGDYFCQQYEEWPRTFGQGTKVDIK

Take 5136_H01 (PGT-131) (antibody): the IC50, single-round pseudovirus neutralization in assay [1] was > 50 µg/mL; in [3], 0.035 µg/mL; in assay [5], 4.8 µg/mL; in assay [13], 0.019 µg/mL. Besides, the half-inhibitory concentration (IC50) in [2] is > 50 µg/mL; in assay [4], 0.756 µg/mL; in assay [9], 0.854 µg/mL; in assay [10] it was 0.029 µg/mL; in [11], 11.2 µg/mL; in assay [12] it was > 50 µg/mL. In addition, the IC50, pseudovirus neutralization was > 50 µg/mL in assay [6], 0.114 µg/mL in [7], > 50 µg/mL in assay [8] and > 50 µg/mL in assay [14].

Take 5147_N06 (PGT-130) (antibody): the IC50, single-round pseudovirus neutralization is > 50 µg/mL in assay [1], 0.308 µg/mL in [3], 1 µg/mL in assay [5] and 0.009 µg/mL in assay [13]. Further, the IC50 was > 50 µg/mL in [2]; 0.019 µg/mL in [4]; 0.959 µg/mL in [9]; 0.01 µg/mL in [10]; 0.869 µg/mL in assay [11]; > 50 µg/mL in assay [12]. In addition, the IC50, pseudovirus neutralization is > 50 µg/mL in assay [6], 0.023 µg/mL in [7], > 50 µg/mL in assay [8] and > 50 µg/mL in assay [14]. Further, the IC50 (ug/ml), neutralizing activity is > 10 µg/mL in assay [15] and 0.0182 µg/mL in assay [16]. Besides, the neutralization IC50 in assay [17] is > 10 µg/mL. The neutralization IC80 in [17] is > 10 µg/mL. In addition, the neutralization IC90 in assay [17] is > 10 µg/mL. In assay [17], the neutralization IC95 was > 10 µg/mL.

5329_C19 (PGT-136) (antibody): the IC50, single-round pseudovirus neutralization was > 50 µg/mL in assay [1], > 50 µg/mL in assay [3], > 50 µg/mL in [5] and 29.1 µg/mL in assay [13]. In addition, the IC50 was 27.7 µg/mL in [2]; > 50 µg/mL in assay [4]; > 50 µg/mL in assay [9]; > 50 µg/mL in assay [10]; > 50 µg/mL in assay [11]; > 50 µg/mL in assay [12]. In addition, the IC50, pseudovirus neutralization in assay [6], in assay [7], in assay [8] and in [14] was > 50 µg/mL each time.

Turning to 5343_B08 (PGT-135) (antibody), the IC50, single-round pseudovirus neutralization is > 50 µg/mL in assay [1], > 50 µg/mL in assay [3], > 50 µg/mL in assay [5] and 17.9 µg/mL in assay [13]. Also, the IC50 is 8.03 µg/mL in [2]; 23.5 µg/mL in assay [4]; > 50 µg/mL in [9]; 0.131 µg/mL in [10]; > 50 µg/mL in assay [11]; > 50 µg/mL in [12]. Further, the IC50, pseudovirus neutralization was 0.01 µg/mL in assay [6], 0.211 µg/mL in assay [7], > 50 µg/mL in assay [8] and 21.1 µg/mL in assay [14].

With 5345_I01 (PGT-137) (antibody), the IC50, single-round pseudovirus neutralization was > 50 µg/mL in [1], > 50 µg/mL in [3], > 50 µg/mL in assay [5] and 28.3 µg/mL in [13]. The IC50 was 17.4 µg/mL in [2]; 6.3 µg/mL in assay [4]; > 50 µg/mL in [9]; > 50 µg/mL in assay [10]; > 50 µg/mL in assay [11]; > 50 µg/mL in [12]. Besides, the IC50, pseudovirus neutralization is > 50 µg/mL in [6], 40.3 µg/mL in assay [7], > 50 µg/mL in assay [8] and > 50 µg/mL in assay [14].

The values are drawn from US20200024330A1.
